These results are taken from patent publication US20230416330A1, “Optimized GIP Peptide Analogues” (Antag Therapeutics ApS, priority 2019, published 2023).

Starred links: 1 amine or outer side, 2 acyl side, 3 side chain; linkers in the order of their positions; H or OH if unused. Non-standard residues stand in square brackets, D forms with d. Groups on a side chain read outwards from the residue. No end group written: not given here. *: point of attachment. C18 diacid = O=C(O)CCCCCCCCCCCCCCCCC(=O)*; C16 diacid = O=C(O)CCCCCCCCCCCCCCC(=O)*; γGlu = O=C(O)[C@H](CCC(=O)[*:2])N[*:1]; Glutaryl = O=C(CCCC(=O)[*:2])[*:1]; AEEA = NCCOCCOCC(=O)O; Aib = CC(C)(N)C(=O)O

This experiment has as its target T1, human GIP receptor (human, UniProt P48546 22-466).
T1 sequence (looked up): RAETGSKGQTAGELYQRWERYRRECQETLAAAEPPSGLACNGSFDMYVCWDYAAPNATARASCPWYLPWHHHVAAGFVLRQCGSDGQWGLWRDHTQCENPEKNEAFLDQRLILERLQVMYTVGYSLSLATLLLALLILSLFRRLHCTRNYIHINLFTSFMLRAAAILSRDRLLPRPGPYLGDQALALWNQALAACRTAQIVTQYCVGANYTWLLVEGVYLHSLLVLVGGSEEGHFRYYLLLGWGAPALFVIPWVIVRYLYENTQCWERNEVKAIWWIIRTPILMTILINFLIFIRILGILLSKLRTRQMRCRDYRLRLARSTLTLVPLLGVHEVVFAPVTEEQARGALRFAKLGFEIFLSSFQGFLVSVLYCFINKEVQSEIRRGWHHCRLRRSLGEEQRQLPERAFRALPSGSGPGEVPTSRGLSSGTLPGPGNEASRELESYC
In words: cell-based or functional assay.

B1: AT714 (peptide)
peptide: EGTFISEYSI[Aib]LEKIK([AEEA-AEEA-γGlu-C18 diacid])QQEFVEWLLAQKPSSGAPPPS-NH2
modifications: N-terminus assumed
SMILES: CC[C@H](C)[C@H](NC(=O)[C@H](CCCCN)NC(=O)[C@H](CCC(=O)O)NC(=O)[C@H](CC(C)C)NC(=O)C(C)(C)NC(=O)[C@@H](NC(=O)[C@H](CO)NC(=O)[C@H](Cc1ccc(O)cc1)NC(=O)[C@H](CCC(=O)O)NC(=O)[C@H](CO)NC(=O)[C@@H](NC(=O)[C@H](Cc1ccccc1)NC(=O)[C@@H](NC(=O)CNC(=O)[C@@H](N)CCC(=O)O)[C@@H](C)O)[C@@H](C)CC)[C@@H](C)CC)C(=O)N[C@@H](CCCCNC(=O)COCCOCCNC(=O)COCCOCCNC(=O)CC[C@H](NC(=O)CCCCCCCCCCCCCCCCC(=O)O)C(=O)O)C(=O)N[C@@H](CCC(N)=O)C(=O)N[C@@H](CCC(N)=O)C(=O)N[C@@H](CCC(=O)O)C(=O)N[C@@H](Cc1ccccc1)C(=O)N[C@H](C(=O)N[C@@H](CCC(=O)O)C(=O)N[C@@H](Cc1c[nH]c2ccccc12)C(=O)N[C@@H](CC(C)C)C(=O)N[C@@H](CC(C)C)C(=O)N[C@@H](C)C(=O)N[C@@H](CCC(N)=O)C(=O)N[C@@H](CCCCN)C(=O)N1CCC[C@H]1C(=O)N[C@@H](CO)C(=O)N[C@@H](CO)C(=O)NCC(=O)N[C@@H](C)C(=O)N1CCC[C@H]1C(=O)N1CCC[C@H]1C(=O)N1CCC[C@H]1C(=O)N[C@@H](CO)C(N)=O)C(C)C
Take B1: the “nM (Kb, Gaddum assay, cAMP)” value was found to be 0.43 nM and the “pKb (Gaddum assay, cAMP)” value was 9.4.

B2: AT717 (peptide)
peptide: Glutaryl-GTFISEYSI[Aib]LEKIK(C16 diacid)QQEFVEWLLAQKPSSGAPPPS-OH
SMILES: CC[C@H](C)[C@H](NC(=O)[C@H](CCCCN)NC(=O)[C@H](CCC(=O)O)NC(=O)[C@H](CC(C)C)NC(=O)C(C)(C)NC(=O)[C@@H](NC(=O)[C@H](CO)NC(=O)[C@H](Cc1ccc(O)cc1)NC(=O)[C@H](CCC(=O)O)NC(=O)[C@H](CO)NC(=O)[C@@H](NC(=O)[C@H](Cc1ccccc1)NC(=O)[C@@H](NC(=O)CNC(=O)CCCC(=O)O)[C@@H](C)O)[C@@H](C)CC)[C@@H](C)CC)C(=O)N[C@@H](CCCCNC(=O)CCCCCCCCCCCCCCC(=O)O)C(=O)N[C@@H](CCC(N)=O)C(=O)N[C@@H](CCC(N)=O)C(=O)N[C@@H](CCC(=O)O)C(=O)N[C@@H](Cc1ccccc1)C(=O)N[C@H](C(=O)N[C@@H](CCC(=O)O)C(=O)N[C@@H](Cc1c[nH]c2ccccc12)C(=O)N[C@@H](CC(C)C)C(=O)N[C@@H](CC(C)C)C(=O)N[C@@H](C)C(=O)N[C@@H](CCC(N)=O)C(=O)N[C@@H](CCCCN)C(=O)N1CCC[C@H]1C(=O)N[C@@H](CO)C(=O)N[C@@H](CO)C(=O)NCC(=O)N[C@@H](C)C(=O)N1CCC[C@H]1C(=O)N1CCC[C@H]1C(=O)N1CCC[C@H]1C(=O)N[C@@H](CO)C(=O)O)C(C)C
In the case of B2, the “nM (Kb, Gaddum assay, cAMP)” value amounted to 0.17 nM and the “pKb (Gaddum assay, cAMP)” value is 9.8.
For Glutaryl-GTFISDYSI[Aib]MDKIK(C16 diacid)QQDFVEWLLAQKPSSGAPPPS-OH [AT715] the same measures were 0.19 nM and 9.7.

B3: AT716 (peptide)
peptide: EGTFISEYSI[Aib]MEKIK(C16 diacid)QQDFVEWLLAQKPSSGAPPPS-OH
modifications: N-terminus assumed
SMILES: CC[C@H](C)[C@H](NC(=O)[C@H](CCCCN)NC(=O)[C@H](CCC(=O)O)NC(=O)[C@H](CCSC)NC(=O)C(C)(C)NC(=O)[C@@H](NC(=O)[C@H](CO)NC(=O)[C@H](Cc1ccc(O)cc1)NC(=O)[C@H](CCC(=O)O)NC(=O)[C@H](CO)NC(=O)[C@@H](NC(=O)[C@H](Cc1ccccc1)NC(=O)[C@@H](NC(=O)CNC(=O)[C@@H](N)CCC(=O)O)[C@@H](C)O)[C@@H](C)CC)[C@@H](C)CC)C(=O)N[C@@H](CCCCNC(=O)CCCCCCCCCCCCCCC(=O)O)C(=O)N[C@@H](CCC(N)=O)C(=O)N[C@@H](CCC(N)=O)C(=O)N[C@@H](CC(=O)O)C(=O)N[C@@H](Cc1ccccc1)C(=O)N[C@H](C(=O)N[C@@H](CCC(=O)O)C(=O)N[C@@H](Cc1c[nH]c2ccccc12)C(=O)N[C@@H](CC(C)C)C(=O)N[C@@H](CC(C)C)C(=O)N[C@@H](C)C(=O)N[C@@H](CCC(N)=O)C(=O)N[C@@H](CCCCN)C(=O)N1CCC[C@H]1C(=O)N[C@@H](CO)C(=O)N[C@@H](CO)C(=O)NCC(=O)N[C@@H](C)C(=O)N1CCC[C@H]1C(=O)N1CCC[C@H]1C(=O)N1CCC[C@H]1C(=O)N[C@@H](CO)C(=O)O)C(C)C
For the molecule B3, the “nM (Kb, Gaddum assay, cAMP)” value came to 0.29 nM and the “pKb (Gaddum assay, cAMP)” value was 9.5.
On to EGTFISEYSIALEKIK(C16 diacid)QQEFVEWLLAQKPSSGAPPPS-OH [AT718], for which the “nM (Kb, Gaddum assay, cAMP)” value was determined as 0.33 nM and the “pKb (Gaddum assay, cAMP)” value came to 9.5.

B4: AT713 (peptide)
peptide: Glutaryl-GTFISEYSI[Aib]LEKIK([AEEA-AEEA-γGlu-C18 diacid])QQEFVEWLLAQKPSSGAPPPS-NH2
SMILES: CC[C@H](C)[C@H](NC(=O)[C@H](CCCCN)NC(=O)[C@H](CCC(=O)O)NC(=O)[C@H](CC(C)C)NC(=O)C(C)(C)NC(=O)[C@@H](NC(=O)[C@H](CO)NC(=O)[C@H](Cc1ccc(O)cc1)NC(=O)[C@H](CCC(=O)O)NC(=O)[C@H](CO)NC(=O)[C@@H](NC(=O)[C@H](Cc1ccccc1)NC(=O)[C@@H](NC(=O)CNC(=O)CCCC(=O)O)[C@@H](C)O)[C@@H](C)CC)[C@@H](C)CC)C(=O)N[C@@H](CCCCNC(=O)COCCOCCNC(=O)COCCOCCNC(=O)CC[C@H](NC(=O)CCCCCCCCCCCCCCCCC(=O)O)C(=O)O)C(=O)N[C@@H](CCC(N)=O)C(=O)N[C@@H](CCC(N)=O)C(=O)N[C@@H](CCC(=O)O)C(=O)N[C@@H](Cc1ccccc1)C(=O)N[C@H](C(=O)N[C@@H](CCC(=O)O)C(=O)N[C@@H](Cc1c[nH]c2ccccc12)C(=O)N[C@@H](CC(C)C)C(=O)N[C@@H](CC(C)C)C(=O)N[C@@H](C)C(=O)N[C@@H](CCC(N)=O)C(=O)N[C@@H](CCCCN)C(=O)N1CCC[C@H]1C(=O)N[C@@H](CO)C(=O)N[C@@H](CO)C(=O)NCC(=O)N[C@@H](C)C(=O)N1CCC[C@H]1C(=O)N1CCC[C@H]1C(=O)N1CCC[C@H]1C(=O)N[C@@H](CO)C(N)=O)C(C)C
For B4, the “nM (Kb, Gaddum assay, cAMP)” value worked out at 0.31 nM and the “pKb (Gaddum assay, cAMP)” value amounted to 9.5.
